Reference: the supplement of paper PMC9732359
± gives the uncertainty stated by the source.

Assay: protein stability index of a GFP-peptide fusion (yeast GPS) (PSI 1-4); higher = more stable; sorted into four equal gates, so the index is relative within each strain
How it was run: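 The protein stability index combines read frequencies across sorting gates, each weighted by its gate number and then summed. To obtain those frequencies, a pooled yeast library of GFP fusions to tiled 17-residue yeast protein peptides, on a plasmid also expressing Cherry, was grown to mid-log phase in leucine-free medium. The cells were sorted into four equal gates by GFP/Cherry ratio before plasmid amplification by PCR and Illumina sequencing.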

## ESKPFSSDALSKEKANF [SIR4]
doa10∆
  protein stability index: 1.96 ± 0.068
pdr5∆
  protein stability index: 1.59 ± 0.065
san1∆
  protein stability index: 1.73 ± 0.089
ubr1∆
  protein stability index: 1.39 ± 0.056

## ESKSDDNSATSYYELET [RRI1]
doa10∆
  protein stability index: 3.25 ± 0.084
pdr5∆
  protein stability index: 3.24 ± 0.059
san1∆
  protein stability index: 3.13 ± 0.067
ubr1∆
  protein stability index: 3.19 ± 0.057

## ESLYEPNLEPEDLFETI [PUP3]
doa10∆
  protein stability index: 3.27 ± 0.12
pdr5∆
  protein stability index: 3.09 ± 0.13
san1∆
  protein stability index: 2.99 ± 0.11
ubr1∆
  protein stability index: 3.01 ± 0.078

## ESPVDVQSQVDSSSVSE [FAS1]
doa10∆
  protein stability index: 3.11 ± 0.06
pdr5∆
  protein stability index: 3.3 ± 0.073
san1∆
  protein stability index: 3.14 ± 0.051
ubr1∆
  protein stability index: 3.23 ± 0.042

## ESSINTHPHAADGSSYM [SKI6]
doa10∆
  protein stability index: 2.98 ± 0.047
pdr5∆
  protein stability index: 3.22 ± 0.039
san1∆
  protein stability index: 3 ± 0.035
ubr1∆
  protein stability index: 3.05 ± 0.036

## ESSSEDDYEDQDDDDYV [IRR1]
doa10∆
  protein stability index: 3.58 ± 0.16
pdr5∆
  protein stability index: 3.52 ± 0.11
ubr1∆
  protein stability index: 3.65 ± 0.16

## ESVPIYSIDEFFLQRKL [BRR2]
doa10∆
  protein stability index: 3.44 ± 0.13
pdr5∆
  protein stability index: 3.21 ± 0.062
san1∆
  protein stability index: 2.96 ± 0.12
ubr1∆
  protein stability index: 3.33 ± 0.057

## ESYNQNDWKLETERLIS [SIN4]
doa10∆
  protein stability index: 3.4 ± 0.09
pdr5∆
  protein stability index: 3.21 ± 0.14
san1∆
  protein stability index: 3.29 ± 0.066
ubr1∆
  protein stability index: 3.15 ± 0.11

## ETANVASLNLLQLAPGA [RPL4A]
doa10∆
  protein stability index: 2.84 ± 0.14
pdr5∆
  protein stability index: 3.02 ± 0.18
san1∆
  protein stability index: 3.29 ± 0.078
ubr1∆
  protein stability index: 3.27 ± 0.11

## ETATSERNASEVRDATL [GRR1]
doa10∆
  protein stability index: 3.53 ± 0.19
pdr5∆
  protein stability index: 3.45 ± 0.19
ubr1∆
  protein stability index: 3.52 ± 0.19

## ETESSVSNNEANTPSIP [SWI3]
doa10∆
  protein stability index: 3.09 ± 0.053
pdr5∆
  protein stability index: 3.12 ± 0.069
san1∆
  protein stability index: 3.11 ± 0.054
ubr1∆
  protein stability index: 3.15 ± 0.054

## ETIIEADKSLPSSMATL [YJR042W/NUP85]
doa10∆
  protein stability index: 2.75 ± 0.083
pdr5∆
  protein stability index: 2.85 ± 0.061
san1∆
  protein stability index: 3 ± 0.046
ubr1∆
  protein stability index: 2.91 ± 0.055

## ETIKSLEDPYKYHYKEE [CSN9]
doa10∆
  protein stability index: 3.17 ± 0.09
pdr5∆
  protein stability index: 3.13 ± 0.082
san1∆
  protein stability index: 3.09 ± 0.07
ubr1∆
  protein stability index: 3.14 ± 0.06

## ETYGSMEMSEKIQFILE [RPN5]
doa10∆
  protein stability index: 2.41 ± 0.12
pdr5∆
  protein stability index: 2.94 ± 0.082
san1∆
  protein stability index: 2.53 ± 0.079
ubr1∆
  protein stability index: 2.77 ± 0.079

## EVDKSKLITTYISLLKL [YDL116W/NUP84]
doa10∆
  protein stability index: 2.66 ± 0.08
pdr5∆
  protein stability index: 1.45 ± 0.06
san1∆
  protein stability index: 1.27 ± 0.13
ubr1∆
  protein stability index: 1.43 ± 0.046

## EVDVCDKCGLMGYSGWC [RET1]
doa10∆
  protein stability index: 2.15 ± 0.098
pdr5∆
  protein stability index: 2.73 ± 0.086
san1∆
  protein stability index: 2.32 ± 0.19
ubr1∆
  protein stability index: 2.39 ± 0.088

## EVFEFKTFNKIQSQVFE [BRR2]
pdr5∆
  protein stability index: 3.29 ± 0.19
ubr1∆
  protein stability index: 3.08 ± 0.22

## EVFIGRVKDQDGRVNRF [YJR042W/NUP85]
doa10∆
  protein stability index: 3.44 ± 0.2
pdr5∆
  protein stability index: 3.28 ± 0.28
san1∆
  protein stability index: 3.5 ± 0.14
ubr1∆
  protein stability index: 3.19 ± 0.17

## EVGNRKHYLEDKLKVYK [SNF5]
doa10∆
  protein stability index: 3.19 ± 0.1
pdr5∆
  protein stability index: 3.19 ± 0.14
san1∆
  protein stability index: 3.11 ± 0.12
ubr1∆
  protein stability index: 3.06 ± 0.067

## EVGPWGSARTRWEMEAF [FAS2]
doa10∆
  protein stability index: 1.23 ± 0.077
pdr5∆
  protein stability index: 1.62 ± 0.25
ubr1∆
  protein stability index: 1.6 ± 0.13

## EVIFTDVLKSQANTEPE [MCD1]
doa10∆
  protein stability index: 3.07 ± 0.21
pdr5∆
  protein stability index: 3.08 ± 0.12
san1∆
  protein stability index: 2.97 ± 0.088
ubr1∆
  protein stability index: 2.95 ± 0.12

## EVKLKASLKKMEETEQK [SMC3]
pdr5∆
  protein stability index: 3.16 ± 0.15
san1∆
  protein stability index: 3.2 ± 0.17
ubr1∆
  protein stability index: 3.53 ± 0.25

## EVLEKDAAIVKKYKNKT [YGR119C/NUP57]
doa10∆
  protein stability index: 3.15 ± 0.11
pdr5∆
  protein stability index: 3.24 ± 0.087
san1∆
  protein stability index: 3.16 ± 0.071
ubr1∆
  protein stability index: 3.1 ± 0.096

## EVLQGLLQGGAKVVVTT [FAS2]
doa10∆
  protein stability index: 3.22 ± 0.092
pdr5∆
  protein stability index: 2.91 ± 0.076
san1∆
  protein stability index: 2.29 ± 0.076
ubr1∆
  protein stability index: 1.61 ± 0.088

## EVNSLLLQVNKTFCEDP [GRR1]
doa10∆
  protein stability index: 3.27 ± 0.099
pdr5∆
  protein stability index: 3.34 ± 0.066
san1∆
  protein stability index: 3.22 ± 0.054
ubr1∆
  protein stability index: 3.24 ± 0.044

## EVSDFDEMYELTDPMTV [DIB1]
pdr5∆
  protein stability index: 3.48 ± 0.18
san1∆
  protein stability index: 2.94 ± 0.23
ubr1∆
  protein stability index: 2.85 ± 0.26

## EVSGENVVEADLKRFVD [QCR2]
doa10∆
  protein stability index: 3.31 ± 0.19
pdr5∆
  protein stability index: 3.25 ± 0.13
san1∆
  protein stability index: 3.36 ± 0.058
ubr1∆
  protein stability index: 3.66 ± 0.067

## EYAALASLADVMSIESL [FAS1]
doa10∆
  protein stability index: 3.07 ± 0.069
pdr5∆
  protein stability index: 3.11 ± 0.068
san1∆
  protein stability index: 3.14 ± 0.069
ubr1∆
  protein stability index: 3.07 ± 0.053

## EYGKHDFKNEESLSEEH [MED8]
doa10∆
  protein stability index: 3.3 ± 0.1
pdr5∆
  protein stability index: 3 ± 0.081
san1∆
  protein stability index: 3.1 ± 0.053
ubr1∆
  protein stability index: 3.34 ± 0.054

## EYIDAEEEESILIAMQP [RPB2]
doa10∆
  protein stability index: 3.37 ± 0.076
pdr5∆
  protein stability index: 3.41 ± 0.091
san1∆
  protein stability index: 3.13 ± 0.067
ubr1∆
  protein stability index: 3.46 ± 0.091

## EYKLATYGVPGSENKRG [NUT1]
doa10∆
  protein stability index: 3.36 ± 0.086
pdr5∆
  protein stability index: 3.25 ± 0.093
san1∆
  protein stability index: 3.33 ± 0.046
ubr1∆
  protein stability index: 2.96 ± 0.065

## EYNRLKVQDAIEEEIFD [LIN1]
doa10∆
  protein stability index: 2.83 ± 0.057
pdr5∆
  protein stability index: 2.31 ± 0.05
san1∆
  protein stability index: 2.85 ± 0.057
ubr1∆
  protein stability index: 2.93 ± 0.055

## EYYAKKRAFTKKVASAN [RPL16A]
doa10∆
  protein stability index: 2.06 ± 0.081
pdr5∆
  protein stability index: 1.7 ± 0.063
san1∆
  protein stability index: 1.69 ± 0.11
ubr1∆
  protein stability index: 1.57 ± 0.059

## FAAKQRQELQMQRQQQG [SNF2]
doa10∆
  protein stability index: 2.66 ± 0.052
pdr5∆
  protein stability index: 2.84 ± 0.046
san1∆
  protein stability index: 2.71 ± 0.038
ubr1∆
  protein stability index: 2.7 ± 0.045

## FADKKRDCIDISIFSTP [PRP8]
doa10∆
  protein stability index: 3.2 ± 0.076
pdr5∆
  protein stability index: 2.99 ± 0.072
san1∆
  protein stability index: 2.87 ± 0.055
ubr1∆
  protein stability index: 3.24 ± 0.068

## FAGVASKKVTSGVPRLK [RPO21]
doa10∆
  protein stability index: 3.03 ± 0.2
pdr5∆
  protein stability index: 3.08 ± 0.2

## FALIDYFYDLDVLKDGE [BRN1]
doa10∆
  protein stability index: 2.86 ± 0.049
pdr5∆
  protein stability index: 2.76 ± 0.057
san1∆
  protein stability index: 3.04 ± 0.061
ubr1∆
  protein stability index: 2.79 ± 0.049

## FDALRSLDDNSTSLEKQ [YJL041W/NSP1]
doa10∆
  protein stability index: 2.99 ± 0.086
pdr5∆
  protein stability index: 3.03 ± 0.11
san1∆
  protein stability index: 3 ± 0.062
ubr1∆
  protein stability index: 3.02 ± 0.066

## FDEGTTLLSPKDNGMLI [RPO21]
doa10∆
  protein stability index: 2.7 ± 0.066
pdr5∆
  protein stability index: 2.45 ± 0.067
san1∆
  protein stability index: 2.91 ± 0.061
ubr1∆
  protein stability index: 1.96 ± 0.065

## FDEKTIEEMLEIISGYA [RPC17]
doa10∆
  protein stability index: 1.36 ± 0.082
pdr5∆
  protein stability index: 2.69 ± 0.14
san1∆
  protein stability index: 2.07 ± 0.14
ubr1∆
  protein stability index: 1.75 ± 0.09

## FDFIKDNETPSKKTSPK [YOR098C/NUP1]
doa10∆
  protein stability index: 2.25 ± 0.051
pdr5∆
  protein stability index: 2.87 ± 0.043
san1∆
  protein stability index: 2.6 ± 0.063
ubr1∆
  protein stability index: 2.96 ± 0.038

## FDFLDDGTAQLSNNKTD [YJR042W/NUP85]
doa10∆
  protein stability index: 3.38 ± 0.23
pdr5∆
  protein stability index: 3.52 ± 0.21
san1∆
  protein stability index: 3.5 ± 0.099
ubr1∆
  protein stability index: 3.39 ± 0.12

## FDKNTKTTPNTASSEAS [YMR153W/NUP53]
doa10∆
  protein stability index: 2.99 ± 0.051
pdr5∆
  protein stability index: 2.98 ± 0.053
san1∆
  protein stability index: 2.9 ± 0.036
ubr1∆
  protein stability index: 2.8 ± 0.043

## FDPSRIKDLKQREDKLK [SMC2]
doa10∆
  protein stability index: 2.66 ± 0.087
pdr5∆
  protein stability index: 2.88 ± 0.18
san1∆
  protein stability index: 2.99 ± 0.28
ubr1∆
  protein stability index: 2.92 ± 0.13

## FDVVLTTFEYIIKERAL [SNF2]
doa10∆
  protein stability index: 2.12 ± 0.067
pdr5∆
  protein stability index: 2.36 ± 0.071
san1∆
  protein stability index: 2.05 ± 0.088
ubr1∆
  protein stability index: 2.14 ± 0.071

## FEAAVKMSDGFNGADIR [RPT4]
doa10∆
  protein stability index: 3.66 ± 0.18
pdr5∆
  protein stability index: 3.46 ± 0.091
san1∆
  protein stability index: 3.34 ± 0.053
ubr1∆
  protein stability index: 3.39 ± 0.09

## FEDATREQHIDTICQSI [SNF5]
doa10∆
  protein stability index: 2.88 ± 0.1
pdr5∆
  protein stability index: 3.21 ± 0.15
san1∆
  protein stability index: 3.26 ± 0.066
ubr1∆
  protein stability index: 3.19 ± 0.08

## FEEWIKMATDNKINSRN [BRN1]
doa10∆
  protein stability index: 3.27 ± 0.13
pdr5∆
  protein stability index: 3.17 ± 0.096
san1∆
  protein stability index: 3.27 ± 0.11
ubr1∆
  protein stability index: 3.7 ± 0.14

## FEFGNMKATSNTLEEFE [FAS2]
doa10∆
  protein stability index: 3.18 ± 0.054
pdr5∆
  protein stability index: 3.4 ± 0.08
san1∆
  protein stability index: 3.13 ± 0.061
ubr1∆
  protein stability index: 3.23 ± 0.058

## FEFNIRHSGKVYPITLS [UBP6]
doa10∆
  protein stability index: 1.74 ± 0.11
pdr5∆
  protein stability index: 2.51 ± 0.12
san1∆
  protein stability index: 2.89 ± 0.089
ubr1∆
  protein stability index: 1.22 ± 0.056

## FEFQYLTIGVKFFMKHG [SRB5]
doa10∆
  protein stability index: 1.18 ± 0.046
pdr5∆
  protein stability index: 1.34 ± 0.047
san1∆
  protein stability index: 1.21 ± 0.066
ubr1∆
  protein stability index: 1.18 ± 0.035

## FEGTDDNEEASVKLDLQ [BRN1]
doa10∆
  protein stability index: 3.2 ± 0.17
pdr5∆
  protein stability index: 3.65 ± 0.11
san1∆
  protein stability index: 3.49 ± 0.096
ubr1∆
  protein stability index: 3.35 ± 0.098

## FEIDDEHRIRVFFDKRI [RPS6A]
doa10∆
  protein stability index: 1.88 ± 0.089
pdr5∆
  protein stability index: 3.02 ± 0.12
san1∆
  protein stability index: 2.17 ± 0.13
ubr1∆
  protein stability index: 2.94 ± 0.16
